Test results reported in PMC5519609.

Target: C3b (human) (UniProt P01024)
Assay: SPR; Biacore T200; about 2488 RU of C3b immobilised by amine coupling on a CM5 chip; CFHR3 injected in duplicate at 10-300 ug/ml; 25 °C, 30 ul/min; 10 mM Hepes-buffered saline, 3 mM ENTA (so in the source), 0.05% surfactant p20; wild type: KD from rate constants, mutant: steady-state affinity fit

Row | Kd | koff | kon | Substance
1 | 18 µM | – | – | mutant recombinant CFHR3 Arg142Cys (rs61737525, c.424 C > T) (from UniProt Q02985 19-330) (natural protein)
2 | 0.15 µM | 0.00128 s⁻¹ | 8350 M⁻¹ s⁻¹ | wild-type recombinant CFHR3 (complement factor H-related protein 3) (from UniProt Q02985 19-330) (natural protein)
